The source of these data is patent US20220356267A1.

Test [1] addresses recombinant human CD73 protein (ecto-5'-nucleotidase), expressed by the applicant, C-terminal 6x His tag (human) (UniProt P21589). The test is described as follows: cell-based or functional assay.
In test [2] the target is CD73 on A549 cells (UniProt P21589). The test is described as follows: cell-based or functional assay.
The target of test [3] is recombinant human CD73 protein (ecto-5'-nucleotidase), expressed by the applicant, C-terminal 6x His tag (human) (UniProt P21589). Put plainly: SPR, Biacore T200, antibody captured, human CD73 injected, 25 °C, 1:1 fit. Background: SPR reads the build-up and loss of mass on a sensor chip optically.

Regarding MEDI-9447 (antibody), in test [1], the EC50 (µg/mL), Biochemical level, inhibition of the enzyme activity of CD73 came to 0.188 µg/mL. The substance also registered an EC50 (µg/mL), Cell level (A549 cells), inhibition of the enzyme activity of CD73 in test [2] of 0.113 µg/mL. In test [3], the Kd (as a rule, the constant that tells how readily two partners part at equilibrium) is 0.107 nM; the koff (usually the rate constant with which the complex falls apart) was 6.9e-05 s⁻¹; the kon (in general, a measure of how fast the partners come together) turned out to be 647000 M⁻¹ s⁻¹.
